Changes are numbered by the printed parent chain.
B1: 392C2F10 (antibody, V domains shown)
VH: EVQLQQSGPELVKPGASMKISCKASGYSFTGYTMNWVKQSLGKNLEWIGLINPFNGGTTYNQKFKGKATLTVDKSSSTAYMELLSLTSDDSAVYYCTRGDYWGQGTTLTVSS
VL: DIVMTQSPSSLTVTAGEKVTMSCKSSQSLLNSGNQKNYLTWYQQKPGQPPKLLIYWASTRESGVPDRFAGSGSGTDFTLTISSVQAEDLAVYYCQSDYSYPTFGAGTKLELK
notes: mouse hybridoma mAb
B2: 406G3C4 (antibody, V domains shown)
VH: EIQLQQSGPELMKPGASVRISCKASGYSFISYYIYWVKQSHGKGLEWIGYIDPFNGNTNYNQKFKGKATLTVDRSSSTAYIHLNSLTSEDSAVYYCAIVNGYGRGAMDYWGQGTSVTVSS
VL: QIVLTQSPAIMSASPGEKVTMTCSASSSISYMHWYQQKSGTSPKRWIYDTSKLASGVPARFSGSGSGTSYSLTISSMEAEDAATYYCQQWSSNPLTFGDGTKLELK
notes: mouse hybridoma mAb
B3: 410H6H3 (antibody, V domains shown)
VH: DVLLVESGGGLVQPGGSRKLSCAASGFTFSSSGMHWVRQAPEKGLEWVAYISSGSNTIYYADTLKGRFTISRDNPKNTLFLQMTSLRSEDTAMYYCARIYYGNSFVYWGQGTLVTVSA
VL: DIVMTQSPSSLTVTAGEKVIMSCKSSQSLLNSGNQKNYLTWYQQKPGQPPKMLIYWASTRESGVPDRFRGSGSGTDFTLTISSVQAEDLAVYYCQNNYYYPLTFGTGTKLALK
notes: mouse hybridoma mAb
B4: 407A8G10 (antibody, V domains shown)
VH: DVQLVESGGGLVQPGGSRKLSCAASGFTFSGFGMHWIRQTPEKGLEWVAYISSGSRPIYYADTVKGRFTISRDNPKNTLFLQMTSLRSEDTAMYFCARFYYGNSFDHWGQGTLVTVSA
VL: DIVMTQSPSFLTVTAGEKVTMSCRSSQSLLNSGNQRNYLTWYQQKPGQPPKLLIYWASTRESGVPDRFTGSGSGTDFALTISSVQAEDLALYYCQNAYSFPLTFGAGTKLELK
notes: mouse hybridoma mAb
B5: 413B1C9 (antibody, V domains shown)
VH: B4 VH with G31S, I37V, T40A, R56S
VL: B3 VL with A15T, I20S, L30F, S32R, N37S, M52L, R69T, Y99I, T106A, A111E
notes: mouse hybridoma mAb
B6: 416F12F3 (antibody, V domains shown)
VH: B3 VH with L3Q, S32F, N56S, D62H, T63S, L64V, R87G, I99F, V106A
VL: B3 VL with I20T, M21L, R69T, N97A, Y99T, T106A, K109R, A111E
notes: mouse hybridoma mAb
B7: 405G8F11 (antibody, V domains shown)
VH: B4 VH with A23V, A24T, G31S, I37V, T40A, R56S, T84S, D106A, H107Y
VL: DIVMTQSPSSLTVTAGEKVTMNCKSSQSLLNSGNQKNYLTWYQQKLGQPPKLLMYWASTRESGVPDRFTGSGSGTDFTLTISSVQAEDLAVYFCQSAFSYPLTFGAGTKLELK
notes: mouse hybridoma mAb
B8: 414A5F7 (antibody, V domains shown)
VH: B3 VH with L3Q, S32F, N56S, T57P, L64V, Y95F, V106A
VL: B3 VL with I20A, S28T, M52L, I54L, R69T, N97A, T106S, A111E
notes: mouse hybridoma mAb
B9: 423B2B5 (antibody, V domains shown)
VH: B4 VH with G31S, I37V, T40A, R56S, A61S, T84S, F99I
VL: B7 VL with L46P, M54I, F93Y, S96N, A97D, F98Y
notes: mouse hybridoma mAb
B10: 393C2C5 (antibody, V domains shown)
VH: B4 VH with G31S, I37V, T40A, R56S, R98T, D106A, H107Y
VL: B7 VL with N22S, S28T, L46S, M54I, F93Y, S96N, F98Y, L102V, A106S, L110V
notes: mouse hybridoma mAb
B11: 419B5G9 (antibody, V domains shown)
VH: DVQLVESGGGLVQPGGSRKLSCAASGFTFSTFGMHWVRQAPEKGLEWVAYISGGSTTIFYADTVKGRFTISRDNPKNTLFLQMTSVRSEDTAMYYCARFYYGNSFAYWGPGTLVTVST
VL: B3 VL with I20T, R69T, N97A, Y99S, T106A, A111E
notes: mouse hybridoma mAb
B12: 407H12E6 (antibody, V domains shown)
VH: B4 VH with F29V, G31S, I37V, T40A, R56S, M93I
VL: DIVMTQSPSSLTVTTGEKVTMSCKSSQSLLNSGNQKNYLTWYQQKPGQSPKLLIYWASTRESGVPDRFTGSGSGTDFTLTISSVQTEDLAVYFCQNNYFFPLTFGAGTKLELK
notes: mouse hybridoma mAb
B13: 410A9A9 (antibody, V domains shown)
VH: B4 VH with G31S, I37V, T40A, R56S, R98T, D106A, H107Y
VL: B7 VL with N22S, S28T, L46S, M54I, F93Y, S96N, F98Y, L102V, A106S, L110V
notes: mouse hybridoma mAb
B14: 422F4B6 (antibody, V domains shown)
VH: B3 VH with L3Q, T28S, S32F, N56S, T57P, L64V, T69I, Y95F, V106A
VL: B4 VL with F10S, R24K, S28T, R36K, A78T, L91V, F100Y, A106S
notes: mouse hybridoma mAb
B15: 412B6E4 (antibody, V domains shown)
VH: DVQLVESGGGLVQPGGSRKLSCAASGFTFSSFGVHWVRQAPEKGLEWVAYISSGSSTIYYAHSVKGRFTISRDNPKNTLFLQMTSLGSEDTATYYCARFYYGNSFAYWGQGTLVTVSA
VL: B3 VL with I20T, R69T, N97A, Y99T, T106A, K109R, A111E
notes: mouse hybridoma mAb
B16: 411B4G4 (antibody, V domains shown)
VH: B4 VH with M34L
VL: B4 VL with A78T
notes: mouse hybridoma mAb
B17: 413C12F8 (antibody, V domains shown)
VH: B4 VH with M34V, S52G
VL: B4 VL with S22N, R36K, K45R, A78T
notes: mouse hybridoma mAb
B18: 419A10D4 (antibody, V domains shown)
VH: B4 VH
VL: B4 VL with R24K, A78T, I81V
notes: mouse hybridoma mAb
B19: 420F12G8 (antibody, V domains shown)
VH: B4 VH with T28A, A97V
VL: B4 VL with S22T, S28N, R36K, Y55S, A78T, A86P, L102F
notes: mouse hybridoma mAb
B20: 414H6G2 (antibody, V domains shown)
VH: B4 VH with P41A, K65Q
VL: B4 VL with R24K, R36K, A78T
notes: mouse hybridoma mAb
B21: 409G10G6 (antibody, V domains shown)
VH: B4 VH with G54D, A97G
VL: B4 VL with M21L, A78T, L89R, A106T, K113R
notes: mouse hybridoma mAb
B22: 411G12G1 (antibody, V domains shown)
VH: B4 VH with T40A
VL: B4 VL with R24K, R36K, A78T, L91V, A97D
notes: mouse hybridoma mAb
B23: 407E11H8 (antibody, V domains shown)
VH: B4 VH with G31D, A97V, Y101F
VL: B4 VL with S22T, S28N, Q35L, R36K, Y55S, A78T, A86P
notes: mouse hybridoma mAb
B24: 426D9F6 (antibody, V domains shown)
VH: B4 VH
VL: B4 VL with R24K, A78T, I81V
notes: mouse hybridoma mAb
B25: 409D1A7 (antibody, V domains shown)
VH: B4 VH with Q82H
VL: B4 VL with S22N, R24K, A78T, K113N
notes: mouse hybridoma mAb
B26: 425C6D3 (antibody, V domains shown)
VH: B4 VH with K65Q, A118S
VL: B4 VL with R24K, R36K, A78T
notes: mouse hybridoma mAb
B27: 411A6E3 (antibody, V domains shown)
VH: B4 VH with G31D, A97V, Y101F
VL: B4 VL with S22T, S28N, Q35L, R36K, Y55S, A78T, A86P
notes: mouse hybridoma mAb
B28: 425B3D5 (antibody, V domains shown)
VH: B4 VH with K65Q, A118S
VL: B4 VL with R24K, R36K, A78T
notes: mouse hybridoma mAb
B29: 411G3E10 (antibody, V domains shown)
VH: B4 VH
VL: B4 VL with S22N, R36K, A78T
notes: mouse hybridoma mAb
B30: 420D5H5 (antibody, V domains shown)
VH: B4 VH with F29L, A61V, K65E, A118S
VL: B4 VL with R24K, R36K, A78T, S82R, S83G
notes: mouse hybridoma mAb
B31: 426H6E11 (antibody, V domains shown)
VH: B4 VH with K65Q, A118S
VL: B4 VL with S7F, R24K, S28T, R36K, A78T, K109N
notes: mouse hybridoma mAb
B32: 421H4G3 (antibody, V domains shown)
VH: B4 VH with T28S, M34L, Y101F, A118T
VL: B4 VL with A78T, S82N
notes: mouse hybridoma mAb
B33: 422E8F9 (antibody, V domains shown)
VH: B4 VH with K65Q, A118S
VL: B4 VL with R24K, R36K, A78T
notes: mouse hybridoma mAb
B34: 410D9G2 (antibody, V domains shown)
VH: B4 VH with K65Q, A118S
VL: B4 VL with R24K, R36K, A78T
notes: mouse hybridoma mAb
B35: 430B3F1 (antibody, V domains shown)
VH: B4 VH with S55G, K65Q, V116I, A118S
VL: B4 VL with R24K, R36K, A78T
notes: mouse hybridoma mAb
B36: 419A5F3 (antibody, V domains shown)
VH: B4 VH with G54D, A97G
VL: B4 VL with M21L, A78T, L89R, A106T, K113R
notes: mouse hybridoma mAb
B37: 420G10G3 (antibody, V domains shown)
VH: B4 VH with P41A, K65Q
VL: B4 VL with R24K, R36K, A78T
notes: mouse hybridoma mAb
B38: 407D8G1 (antibody, V domains shown)
VH: B4 VH with K65Q, A118S
VL: B4 VL with R24K, R36K, A78T
notes: mouse hybridoma mAb

Molecular target: T1, human Claudin18.2 (human)
T1 construct: also called CLDN18.2
Test: cell ELISA, Claudin18.2-expressing HEK293T cells
Summary of the method: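 Claudin18.2-expressing HEK293T stable cells (1.5×10⁶ cells/ml in 5% skim milk/PBS blocking buffer) were incubated 1 h at room temperature in plates pre-blocked overnight at 4° C. EC₅₀ was derived by four-parameter curve fit.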

Row | Binder | EC50 [nM]
1 | B1 | 350
2 | B2 | 12.6
3 | B3 | 45.5
4 | B4 | 2.14
5 | B5 | 24.6
6 | B6 | 14.7
7 | B7 | ~91.2
8 | B8 | 15.5
9 | B9 | 12.7
10 | B10 | 4.45
11 | B11 | 22.5
12 | B12 | 2.39
13 | B13 | 6.21
14 | B14 | 2.53
15 | B15 | 33.1
16 | B16 | 2.85
17 | B17 | 3.55
18 | B18 | 2.33
19 | B19 | 2.61

Row | Binder | EC50 [nM]
20 | B20 | 12
21 | B21 | 2.19
22 | B22 | 3.47
23 | B23 | 1.24
24 | B24 | 2.14
25 | B25 | 2.05
26 | B26 | 1.92
27 | B27 | ~2.6
28 | B28 | 2.61
29 | B29 | 2.45
30 | B30 | 7.03
31 | B31 | 1.78
32 | B32 | 2.47
33 | B33 | 1.88
34 | B34 | 4.33
35 | B35 | 2.56
36 | B36 | 2.61
37 | B37 | 2.39
38 | B38 | 2.38
